In this assay the target is T1, soluble peptide MHC complex of p53125-134 and soluble HLA*A2402 (human).
T1 construct: Soluble complex used for phage selection, ELISA and SPR; also called p53-A24; p53-A24 monomers
The assay is described as follows: surface plasmon resonance. (In general: SPR reads the build-up and loss of mass on a sensor chip optically.)

B1: P1C1_gl (antibody, V domains shown)
VH: QVQLQESGPGLVKPSQTLSLTCTVSGGSISSGGYYWSWIRQHPGKGLEWIGYIYYSGSTYYNPSLKSRVTISVDTSKNQFSLKLSSVTAADTAVYYCARENFGAFDHWGQGTLVTVSS
VL: QSVLTQPPSVSGAPGQRVTISCTGSSSNIGADYETHWYQQLPGTAPKLLIYGNTNRPSGVPDRFSGSKSGTSASLAITGLQAEDEADYYCQSYDSNLSAWVFGGGTKLTILS
notes: it induces ADCC, so it has an Fc; also called germline version of P1C1; original germline clone
B1 showed a dissociation constant Kd of 364 nM.

For orientation: Kd means a measure of binding affinity in units of concentration.

Values taken from patent US20200071406A1 (AGENCY FOR SCIENCE TECHNOLOGY AND RESEARCH, published 2020).
